Experimental findings from patent US20020103152 are described below.

In the series the test system is Sleeping Beauty transposase (SB) (synthetic construct (salmonid Tc1-like, reconstructed)?). The experiment in a line: cell_activity. The conditions noted are these: mouse liver, pRSV-βgeo without terminal repeats; 2-4% with repeats.

“phAAT / pRSV-βgeo plasmids lacking terminal repeats” displayed an activity (% of hepatocytes) of less than 0.01.
